The source of these data is patent US20230272390A1, “COMPOSITIONS AND METHODS FOR HEMOGLOBIN PRODUCTION” (THE CHILDREN'S HOSPITAL OF PHILADELPHIA, priority 2020, published 2023).

The test system of this test is endogenous ZNF410. Description: ChIP-seq in HUDEP-2 cells overexpressing HA-tagged ZF constructs. The following applies: overexpression in HUDEP-2 cells. The format is cell-based, human. The protocol: HUDEP-2 cells at Day 3 of differentiation, primary human CD34+ cells at Day 9 differentiation (similar to the polychromatic stage) and G1E-ER4 cells at 24 hours differentiation were crosslinked with 1% formaldehyde at room temperature for 10 min and quenched by the addition of glycine. ChIP experiments were performed (Hsu, et al. (2017) Mol. Cell., 66:102-116). ZNF410 (Proteintech, Cat. #14529-1-AP), HA (Sigma, Cat. #11815016001) and H3K27ac (Abcam, Cat. #ab4729) antibodies were used for ChIP. ChIP-seq libraries were prepared using TruSeq® ChIP-seq Sample preparation Kit (part #IP-202-1012) according to the manufacturer's instructions. Reads were aligned with Bowtie2 local alignment to allow the mapping of indels (Langmead, et al. (2012) Nat. Methods 9:357-359). […]
Reads were aligned against reference genome hg38 for human and genome mm10 for mouse using Bowtie2 (v2.2.9) and the default parameters. […] Reads aligned to mitochondria, random contigs and ENCODE blacklisted regions were also removed for downstream analysis. Genome coverage files were generated and normalized to 1 million reads per library using bedtools (v2.25.0), and then converted to bigwig format for visualization using the UCSC Toolkit. […] Read density plot and heatmap around selected peaks were generated using Deeptools (version 2.5.7, “computeMatrix” and “plotHeatmap”). […]

B1: ZF1-5: fragment of human ZNF410 comprising five zinc finger domains ZF1-5 (residues 217-366); dominant-negative when overexpressed (protein)
chain: KKLKCTVEGCDRTFVWPAHFKYHLKTHRNDRSFICPAEGCGKSFYVLQRLKVHMRTHNGEKPFMCHESGCGKQFTTAGNLKNHRRIHTGEKPFLCEAQGCGRSFAEYSSLRKHLVVHSGEKPHQCQVCGKTFSQSGSRNVHMRKHHLQLG
modifications: left off: small tags and cut ends
notes: fragment of human ZNF410 comprising five zinc finger domains ZF1-5 (residues 217-366); dominant-negative when overexpressed
Consider B1, for which the “interference with endogenous ZNF410 binding” value (ChIP-seq) is “markedly interfered”. Further, where the note is “HA ChIP-seq”, the chromatin occupancy entry was “bound to the CHD4 regulatory regions and to the other ZNF410 targets”.
